According to PMC5798305:

Target: naked mole-rat ASIC1b (naked mole-rat)

Q: naked mole-rat ASIC3 (natural protein) was tested. Which pH EC50 of proton-gated currents, whole-cell patch clamp of CHO cells cotransfected with nmrASIC3 + nmrASIC1b did it give?
A: Its pH EC50 of proton-gated currents, whole-cell patch clamp of CHO cells cotransfected with nmrASIC3 + nmrASIC1b is 5.58 pH.
